Reference: patent US20150148405A1, “Expression Construct for a Lin28-Resistant Let-7 Precursor MicroRNA” (THE JOHNS HOPKINS UNIVERSITY, priority 2012, published 2015)

Columns and labels:
Format in all cases: cell-based, mouse
miR-17 = assay: Northern blot of control miRNA miR-17; conditions: BDNF-treated (30 min) neurons
Description: Northern blots were carried out as described (Hwang et al., 2007), using the following LNA probes from Exiqon: Let-7a (5′ […] 3′; SEQ ID NO: 1), pre-Let-7a (5′ GTGGGTGTGACCCTA 3′; SEQ ID NO: 2), miR-17 (5′ […] 3′; SEQ ID NO: 3) and quantified by phosphoimaging.

[1] = test system: hippocampal pyramidal neurons; assay: Endogenous P-body numbers by GW182 immunostaining; conditions: 75 min after stimulation; mock 11.36±1.21; p<0.05
From the text: For fixed cells, confocal images were acquired in 0.3 μm (dendrites) or 1.7 μm (whole cells for arborization) Z sections on an LSM5 Pascal system (Carl Zeiss) using a 63×, 1.4 NA Plan Apochromat oil immersion objective and 2× optical zoom (dendrites) or using a 25×, 0.80 NA Plan-Neofluor multi-immersion objective and 0.7×-1× optical zoom (for whole cells). GFP was excited at 488 nm and emissions collected at 505-530 nm; mCherry was excited at 543 nm and emissions collected above 560 nm. Laser power and exposure time were adjusted to minimize photobleaching and avoid saturation. All experiments were from a minimum of 3 independent cultures and no more than 3 neurons per dish Z-stacks containing the entire neuron or process of interest were analyzed using Imaris 7.0.0 (Bitplane) and ImageJ software. […] The percent colocalization of P-body components was calculated by […]. The percent of colocalized fluorescence was calculated for each P-body component by first summing the aggregate fluorescence values that co-localized with the other P-body marker in ‘spots’, then dividing this quantity by the value of the total fluorescence intensity within the dendrite for that channel, and multiplying by 100. […]

phospho-ERK = assay: Immunoblotting for phospho-ERK; conditions: BDNF-stimulated neurons, Actinomycin-D
Description: (§1) Primary cultures of mouse hippocampal neurons (DIV 14 15) were incubated in serum-reduced medium (0.5% B27 supplement) for 2 hours, followed by […] Actinomycin-D for 10-20 min. Bath application of BDNF (100 ng/mL) was for designated periods (5 min-2 hours). The cultures were washed 3 times and harvested on ice with lysis buffer (50 mM Hepes, 150 mM NaCl, 10% Glycerol, 1 mM EDTA, 1% Triton-X-100, 0.2% SDS) plus freshly added protease inhibitor cocktail (Roche) and PMSF. Protein concentration was determined by Bradford Assay. If required, lysates were treated with Lambda Protein Phosphatase according to manufacturer's instructions (New England Biolabs […]). Equal amounts of lysate protein were resolved on SDS-PAGE gels, and electrotransferred to PVDF membrane. […]

KCC2 mRNA = assay: RT-qPCR of mRNA abundance; conditions: control neurons, BDNF 100 ng/mL, 2 hours
Description: For analysis of mRNA abundance: 1 μg of RNA was immediately reverse-transcribed into cDNA with a taqman reverse transcripton kit (Applied Biosystems) and a mixture of random decamer and oligo(dT) primers in a final volume of 30 μL and subjected to TaqMan Gene Expression Assays (Applied Biosystems) for GluR1 (assay ID: Mm00433753_m1), CaMKIIu (Mm00437967_m1), Homer2 (Mm01314936_m1), KCC2 (Mm00803929_m1), Kv1.1 (Mm00439977_s1), GW182 (Mm00523487_m1), GAPDH (Mm99999915_g1), and β-tubulin-III (Mm00727586_s1). RT-qPCR was performed using a Stratagene Mx3000P machine and software in 20 μL reactions on a 96-well optical plate at 95° C. for 5 min, followed by 40 cycles of 95° C. for 30 sec, 55° C. for 1 min and 72° C. for 30 sec. The threshold and threshold cycle (Ct) values were determined using default settings. Standard curves were constructed and used for quantitation of target transcript abundance. In this method, 1:5 dilution series of an independent Standard sample are amplified to generate a curve that relates the initial quantity of the specific target in the Standard samples to the Ct. The standard curve is then used to derive by interpolation the initial sample template quantities based on their Ct values. All derived quantities were further normalized to neuron-specific β-tubulin III, whose translational status is unchanged by BDNF (Schratt et al., 2004). […]

Dicer = assay: Immunoblotting for Dicer; conditions: BDNF-stimulated neurons, Actinomycin-D
Description: as §1

Lin28a = assay: Immunoblotting for Lin28a; conditions: mature neurons, by 5 min following BDNF exposure
Description: as §1

B1: BDNF: brain-derived neurotrophic factor, a neurotrophin used to stimulate hippocampal neurons (protein, UniProt P23560 19-247, looked up)
Neurotrophic factor BDNF …: APMKEANIRGQGGLAYPGVRTHGTLESVNGPKAGSRGLTSLADTFEHVIEELLDEDQKVRPNEENNKDADLYTSRVMLSSQVPLEPPLLFLLEEYKNYLDAANMSMRVRRHSDPARRGELSVCDSISEWVTAADKKTAVDMSGGTVTVLEKVPVSKGQLKQYFYETKCNPMGYTKEGCRGIDKRHWNSQCRTTQSYVRALTMDSKKRIGWRFIRIDTSCVCTLTIKRGR
mature miR-17 level (miR-17): modestly increased
endogenous P-body numbers in individual neuronal dendrites, mean±SEM [1]: 15.48±1.26
phospho-ERK induction (phospho-ERK): rapidly induced phospho-ERK
KCC2 mRNA levels (KCC2 mRNA): reduced mRNA levels
Dicer levels (Dicer): marked transcription-independent increase in Dicer levels
time of peak Dicer levels after stimulation (Dicer): 5 to 20 min
Lin28a protein (Lin28a): robust and rapid transcription-independent increase in Lin28a
